Molecular target: WT1 (mutant) peptide presented by HLA-A*24:02 on HLA-A*24:02 positive LCL (human)
Experiment: cell-based or functional assay

B1: 37F8-derived TCR, WT1 TCR A12-3/B5-1 (TCR α-chain TRAV12-3/TRAJ52/TRAC, TCR β-chain TRBV5-1/TRBD2/TRBJ2-5/TRBC2) (TCR)
TCR alpha: WVWSQQKEVEQDPGPLSVPEGAIVSLNCTYSNSAFQYFMWYRQYSRKGPELLMYTYSSGNKEDGRFTAQVDKSSKYISLFIRDSQPSDSATYLCATSNAGGTSYGKLTFGQGTILTVHPNIQNPDPAVYQLRDSKSSDKSVCLFTDFDSQTNVSQSKDSDVYITDKTVLDMRSMDFKSNSAVAWSNKSDFACANAFNNSIIPEDTFFPSPESSCDVKLVEKSFETDTNLNFQNLSVIGFR
TCR beta: GPVKAGVTQTPRYLIKTRGQQVTLSCSPISGHRSVSWYQQTPGQGLQFLFEYFSETQRNKGNFPGRFSGRQFSNSRSEMNVSTLELGDSALYLCASSYGERERKGETQYFGPGTRLLVLEDLKNVFPPEVAVFEPSEAEISHTQKATLVCLATGFYPDHVELSWWVNGKEVHSGVSTDPQPLKEQPALNDSRYCLSSRLRVSATFWQNPRNHFRCQVQFYGLSENDEWTQDRAKPVTQIVSAEAWGRADCGFTSESYQQGVLSATILYE
cytotoxic activity (%): 73%
